IC50 of inhibition of FXIIa activity, chromogenic assay (substrate S-2302) data for 6 substances are collected here from paper PMC9112662, “Scaffold stability and P14′ residue steric hindrance in the differential inhibition of FXIIa by Aedes aegypti trypsin inhibitor versus Infestin-4” (Bioscience Reports, 2022).

The target in the test is human Factor XIIa (human) (UniProt P00748).
human Factor XIIa (human), sequence (P00748 20-615): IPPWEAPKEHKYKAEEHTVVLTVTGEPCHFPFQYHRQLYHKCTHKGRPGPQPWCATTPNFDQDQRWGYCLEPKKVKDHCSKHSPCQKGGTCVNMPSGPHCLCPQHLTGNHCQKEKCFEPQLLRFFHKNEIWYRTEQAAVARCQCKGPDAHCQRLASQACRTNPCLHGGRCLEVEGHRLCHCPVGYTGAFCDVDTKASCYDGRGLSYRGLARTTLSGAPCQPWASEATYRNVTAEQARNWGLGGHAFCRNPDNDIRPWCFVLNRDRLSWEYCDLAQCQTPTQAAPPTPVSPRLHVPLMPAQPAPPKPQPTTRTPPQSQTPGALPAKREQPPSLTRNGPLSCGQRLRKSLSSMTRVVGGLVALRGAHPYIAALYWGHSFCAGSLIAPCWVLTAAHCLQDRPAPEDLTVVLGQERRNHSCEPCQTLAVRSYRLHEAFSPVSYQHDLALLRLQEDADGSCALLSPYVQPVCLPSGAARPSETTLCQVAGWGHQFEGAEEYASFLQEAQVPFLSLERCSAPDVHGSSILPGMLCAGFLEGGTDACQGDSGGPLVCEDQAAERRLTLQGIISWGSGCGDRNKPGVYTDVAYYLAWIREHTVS
For “Inf4_F10P+N12I+V14M (domain or fragment)”, the IC50 of inhibition of FXIIa activity, chromogenic assay (substrate S-2302) is 70.5 nM.
Under Inf4_F10P+V14M (domain or fragment) stands 42.1 nM; under Inf4_N12I+V14M (domain or fragment), 7.9 nM; under AaTI_Inf4 C1C3+C5C6+N27G, 11.4 nM.
Inf4_F10P+N12I (domain or fragment) yielded an IC50 of inhibition of FXIIa activity, chromogenic assay (substrate S-2302) of 22.8 nM.
Under Inf4_G25N (domain or fragment) stands 54.1 nM.
